Here are results for 17 variants from the supplement of paper PMC7125110.

A word on the kcat: it is the number of substrate molecules converted per active site and unit of time at saturation. As a reminder, the KM is the substrate concentration at which the rate is half of its maximum.

± gives the standard error. For part of these data: Fewer inactive variants are shown than the library holds. Where only a bound is given, the exact number is not on record here.

Sequences and labels used below:
B1: glmS ribozyme (parent)
chain: AUAAAAGCGCCAGAACUACAGAAAUGUAGUUGACGAGGAGGAGGUUUAUCGAAUUUUCGGCGGAUGCCUCCAAA

What all share (details): with glucosamine-6-phosphate
The variants in data set [1] derive from B1. Briefly: kcat; higher = faster cleavage; RNA array. In short, it runs like this:
(§1)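 On sequenced MiSeq chips, barcoded ribozyme variants were made in situ by E. coli RNA polymerase and followed at 37 °C through a hybridised Cy3 probe. Glucosamine-6-phosphate was flowed in at 40 μM to 10 mM in HEPES/KCl/Mg(OAc)2 buffer. Exponential fits to normalised per-tile medians gave kobs, and weighted Michaelis–Menten fits gave kcat and KM.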

In data set [2] the parent is B1. The data set is described as follows: self-cleavage kobs at 640 uM GlcN6P; higher = faster cleavage; RNA array. In a few lines: as §1
Data set [3] covers variants of B1. Briefly: self-cleavage kobs at 2500 uM GlcN6P; higher = faster cleavage; RNA array. In a few lines: as §1
The variants in data set [4] derive from B1. Briefly: self-cleavage kobs at 10000 uM GlcN6P; higher = faster cleavage; RNA array. In a few lines:
as §1

Data set [5] covers variants of B1. The data set is described as follows: self-cleavage kobs at 40 uM GlcN6P; higher = faster cleavage; RNA array. In short, it runs like this:
as §1

The variants in data set [6] derive from B1. Briefly: self-cleavage kobs at 160 uM GlcN6P; higher = faster cleavage; RNA array. In a few lines:
as §1

Data set [7] covers variants of B1. The data set is described as follows: KM; higher = weaker cofactor use; RNA array. In short, it runs like this:
as §1

Take U49G U56C: the catalytic constant (kcat) in data set [1] was determined as 0.000112 ± 1.1e-05 s⁻¹. Besides, the “self-cleavage kobs at 640 uM GlcN6P” value in data set [2] is 7.28e-05 ± 2.5e-05 s⁻¹. Also, the “self-cleavage kobs at 2500 uM GlcN6P” value in data set [3] is 0.000127 ± 2.5e-05 s⁻¹. Also, the “self-cleavage kobs at 10000 uM GlcN6P” value in data set [4] is 0.000103 ± 1.2e-05 s⁻¹.

For the variant A48C U69C, in data set [1], the kcat was found to be 7.16e-05 ± 1.1e-05 s⁻¹. Also, the “self-cleavage kobs at 40 uM GlcN6P” value in data set [5] was below 1e-05 s⁻¹. Further, the “self-cleavage kobs at 160 uM GlcN6P” value in data set [6] is below 1e-05 s⁻¹. Also, the “self-cleavage kobs at 640 uM GlcN6P” value in data set [2] was 6.02e-05 ± 1.9e-05 s⁻¹. Besides, in data set [3], the “self-cleavage kobs at 2500 uM GlcN6P” value turned out to be 9.22e-05 ± 2.4e-05 s⁻¹. Besides, the “self-cleavage kobs at 10000 uM GlcN6P” value in data set [4] stood at 6.44e-05 ± 1.5e-05 s⁻¹.

Consider G32U A42C G51C C67U, for which, in data set [1], the kcat amounted to 1.49e-05 ± 6.1e-07 s⁻¹. In addition, the KM in data set [7] stood at 3.62 ± 0.38 mM.

As for U31C A39G, the kcat in data set [1] came to 0.018 ± 0.0061 s⁻¹. Further, in data set [7], the KM was 4.94 ± 2.2 mM. For the same variant, the “self-cleavage kobs at 40 uM GlcN6P” value in data set [5] turned out to be 0.000253 ± 4.8e-05 s⁻¹. In addition, the “self-cleavage kobs at 160 uM GlcN6P” value in data set [6] is 0.000489 ± 8.5e-05 s⁻¹. Further, the “self-cleavage kobs at 640 uM GlcN6P” value in data set [2] came out at 0.00212 ± 0.00039 s⁻¹. For the same variant, in data set [3], the “self-cleavage kobs at 2500 uM GlcN6P” value was 0.00524 ± 0.0013 s⁻¹. In data set [4], the “self-cleavage kobs at 10000 uM GlcN6P” value is 0.0125 ± 0.0018 s⁻¹.

Regarding A14G A15U C68G, the kcat in data set [1] worked out at 8.39e-05 ± 2.5e-05 s⁻¹. In data set [6], the “self-cleavage kobs at 160 uM GlcN6P” value came out at 5.83e-05 ± 2.5e-05 s⁻¹. Besides, the “self-cleavage kobs at 640 uM GlcN6P” value in data set [2] amounted to 4.44e-05 ± 1.3e-05 s⁻¹. In addition, the “self-cleavage kobs at 2500 uM GlcN6P” value in data set [3] came out at 9.14e-05 ± 2.3e-05 s⁻¹. Besides, the “self-cleavage kobs at 10000 uM GlcN6P” value in data set [4] was determined as 7.97e-05 ± 2.3e-05 s⁻¹.

For G7A U47G C61U, the kcat in data set [1] turned out to be 1.24e-05 ± 4e-06 s⁻¹.

Consider U45G C68U, for which the kcat in data set [1] was 0.00118 ± 0.00032 s⁻¹. Also, the KM in data set [7] amounted to 5.19 ± 2.4 mM. The “self-cleavage kobs at 160 uM GlcN6P” value in data set [6] worked out at 5.23e-05 ± 1.3e-05 s⁻¹. The “self-cleavage kobs at 640 uM GlcN6P” value in data set [2] stood at 0.000145 ± 2.5e-05 s⁻¹. For the same variant, in data set [3], the “self-cleavage kobs at 2500 uM GlcN6P” value amounted to 0.000287 ± 5.6e-05 s⁻¹. For the same variant, the “self-cleavage kobs at 10000 uM GlcN6P” value in data set [4] was determined as 0.000826 ± 8.4e-05 s⁻¹.

For the variant C11A U45A, the kcat in data set [1] worked out at 0.000361 ± 6.9e-05 s⁻¹. Besides, the KM in data set [7] was determined as 3.01 ± 1.1 mM. In addition, in data set [2], the “self-cleavage kobs at 640 uM GlcN6P” value was determined as 5.63e-05 ± 1.2e-05 s⁻¹. The “self-cleavage kobs at 2500 uM GlcN6P” value in data set [3] was 0.000214 ± 3.6e-05 s⁻¹. For the same variant, the “self-cleavage kobs at 10000 uM GlcN6P” value in data set [4] was 0.000262 ± 3.8e-05 s⁻¹.

Turning to C11U C16G, the turnover number (kcat) in data set [1] amounted to 0.000546 ± 4.2e-05 s⁻¹. Besides, the KM in data set [7] came out at 2.85 ± 0.41 mM. Further, in data set [2], the “self-cleavage kobs at 640 uM GlcN6P” value was 0.000104 ± 1.9e-05 s⁻¹. Besides, the “self-cleavage kobs at 2500 uM GlcN6P” value in data set [3] was found to be 0.000258 ± 4.8e-05 s⁻¹. For the same variant, in data set [4], the “self-cleavage kobs at 10000 uM GlcN6P” value was 0.000423 ± 5.7e-05 s⁻¹.

With A39C C58G, the catalytic constant (kcat) in data set [1] was determined as 1.1e-05 ± 2.2e-06 s⁻¹.

For the variant G32A U49A U54G G59A C67U, the kcat in data set [1] is 1.76e-05 ± 5.6e-06 s⁻¹.

Turning to U54C U65C, the kcat in data set [1] turned out to be 0.000618 ± 0.00021 s⁻¹. Further, the “self-cleavage kobs at 640 uM GlcN6P” value in data set [2] amounted to 0.000249 ± 6.5e-05 s⁻¹. In addition, in data set [3], the “self-cleavage kobs at 2500 uM GlcN6P” value came to 0.000743 ± 0.00016 s⁻¹. Besides, the “self-cleavage kobs at 10000 uM GlcN6P” value in data set [4] amounted to 0.000465 ± 0.00013 s⁻¹.

With U45C A53U, the kcat in data set [1] was 0.0028 ± 0.0008 s⁻¹. For the same variant, the KM in data set [7] amounted to 4.32 ± 1.7 mM. Besides, the “self-cleavage kobs at 40 uM GlcN6P” value in data set [5] stood at 4.26e-05 ± 1.2e-05 s⁻¹. Moreover, the “self-cleavage kobs at 160 uM GlcN6P” value in data set [6] is 0.000117 ± 2.5e-05 s⁻¹. Moreover, the “self-cleavage kobs at 640 uM GlcN6P” value in data set [2] was 0.00031 ± 5e-05 s⁻¹. The “self-cleavage kobs at 2500 uM GlcN6P” value in data set [3] is 0.00109 ± 0.00022 s⁻¹. Also, the “self-cleavage kobs at 10000 uM GlcN6P” value in data set [4] was found to be 0.00199 ± 0.00035 s⁻¹.

On to A15U U56G, for which, in data set [1], the kcat is 0.00786 ± 0.0027 s⁻¹. In addition, the KM in data set [7] is 3.29 ± 1.5 mM. Further, the “self-cleavage kobs at 40 uM GlcN6P” value in data set [5] turned out to be 0.000149 ± 2.5e-05 s⁻¹. Besides, in data set [6], the “self-cleavage kobs at 160 uM GlcN6P” value worked out at 0.000265 ± 5e-05 s⁻¹. In addition, the “self-cleavage kobs at 640 uM GlcN6P” value in data set [2] turned out to be 0.00143 ± 0.00018 s⁻¹. The “self-cleavage kobs at 2500 uM GlcN6P” value in data set [3] is 0.00363 ± 0.00053 s⁻¹. Moreover, the “self-cleavage kobs at 10000 uM GlcN6P” value in data set [4] was found to be 0.00565 ± 0.00088 s⁻¹.

G29A A33C: the kcat in data set [1] worked out at 5.32e-05 ± 1.2e-05 s⁻¹. Moreover, the “self-cleavage kobs at 40 uM GlcN6P” value in data set [5] was below 1e-05 s⁻¹. Also, the “self-cleavage kobs at 2500 uM GlcN6P” value in data set [3] worked out at 5.47e-05 ± 1.8e-05 s⁻¹. In addition, in data set [4], the “self-cleavage kobs at 10000 uM GlcN6P” value amounted to 4.65e-05 ± 1.4e-05 s⁻¹.

A52G C70U C71G: the kcat in data set [1] stood at 2.63e-05 ± 1.1e-05 s⁻¹. Besides, the “self-cleavage kobs at 2500 uM GlcN6P” value in data set [3] is 4.78e-05 ± 1.9e-05 s⁻¹.

For the variant A39U A64U, in data set [1], the kcat was 4.75e-05 ± 1.7e-06 s⁻¹. Also, in data set [7], the KM was found to be 0.537 ± 0.12 mM. In addition, the “self-cleavage kobs at 640 uM GlcN6P” value in data set [2] worked out at 2.64e-05 ± 9.3e-06 s⁻¹. Further, in data set [3], the “self-cleavage kobs at 2500 uM GlcN6P” value stood at 4e-05 ± 7e-06 s⁻¹. Moreover, in data set [4], the “self-cleavage kobs at 10000 uM GlcN6P” value is 4.46e-05 ± 5.4e-06 s⁻¹.
